The values below come from paper PMC6520018.

Holding throughout (experiment): EMSA
Background: A gel shift assay detects complexes by their altered migration in electrophoresis.

For data set [1], the target named is T1, AtALBA2 (Arabidopsis thaliana, UniProt O22969 1-130).
T1 sequence: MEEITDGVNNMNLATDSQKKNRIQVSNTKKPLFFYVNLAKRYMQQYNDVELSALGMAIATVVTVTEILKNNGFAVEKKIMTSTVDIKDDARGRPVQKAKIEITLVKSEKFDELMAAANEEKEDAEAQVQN

In data set [2] the target is T2, AtALBA2 K30E (Arabidopsis thaliana, UniProt O22969 1-130, K30E).
T2 sequence: T1 sequence with K30E

The target in data set [3] is T1, AtALBA2. The source holds these as a separate data set.

Substitutions are numbered along the chain they refer to. Read-outs that look alike come from different tables or passages of the source.

B1: dsDNA (EMSA-DNA) (dsDNA)
DNA 1: TCGAATCTCATCATCGCCGC
DNA 2: GCGGCGATGATGAGATTCGA
With B1, the binding result in data set [1] was “binds”; in data set [2] it was “no binding”.

B2: artificial R-loop (mixed)
DNA 1: GCTCGCAAACTACTTAGATGTCATCCGCGAGG
DNA 2: CCTCGCAAGCGGCGATGATGAGATTCGAAAGCGAGC
RNA: UCGAAUCUCAUCAUCGCCGC
For the molecule B2, in data set [3], the binding result is given as “binds”.
